Measurements taken from patent publication US5834184A, “In vivo selection of RNA-binding peptides” (priority 1995, dated 1998).

Key:
[1] = Circular dichroism, helical content of synthetic peptides; format: physicochemical; details: estimated from ellipticity at 222 nm; 10 mM potassium phosphate pH 7.5, 100 mM KF, 4° C. (FIG. 4B)
Protocol: FIG. 4B: Circular dichroism spectra of Rev34-40 (.box-solid.), Rev34-47 (S34) (.smallcircle.), Rev-like peptide clone 24 (.quadrature.), clone 57 peptide (.circle-solid.), and clone 41 peptide (.diamond.).
Circular dichroism was used to assess whether the selected peptides adopted α-helical conformations. Circular dichroism spectra were measured using an Aviv model 62DS spectropolarimeter. Samples were prepared in 10 mM potassium phosphate buffer, pH 7.5 and 100 mM KF. Spectra were recorded using a 1 cm pathlength cuvette at 4° C. and signal was averaged for 5 sec at each wavelength. Scans were repeated five times and averaged.

[2] = system: Nut^- (a Nut site deletion) reporter; assay: Antitermination assay (β-galactosidase reporter in E. coli), Nut^- reporter; format: cell-based, phage λ; design: key to X-gal: +++++, 200 units β-galactosidase/1 OD600 unit cells; ++++, 100-200 units; +++, 10-100 units; ++, 2-10 units; +, 1-10 units; -, background
Description: (§1) Synthetic oligonucleotide cassettes encoding HIV Rev (ma[…]-aaaan) (SEQ ID NO: 26), BIV Tat (mg[…]gggn) (SEQ ID NO: 27), and HIV Tat ([…]) (SEQ ID NO: 28) peptides were cloned into the unique BsmI and NcoI sites of pBRptacN^* (Franklin, J. Mol Biol 231, 343 (1993)), creating fusion proteins at amino acid 20 of the λ N protein. The sequence encoding the fusion protein was linked to a tac promoter.
(§2) A second pACYC-derived vector was constructed encoding a tac promoter linked to the phage λ termination site Nut and a β-galactosidase structural gene. […]
(§3) Plasmids were transformed into E. coli strain N567 (Franklin & Doelling, J. Bacteriol. 171, 2513 (1989)) and bacteria were grown on LB plates or in tryptone broth containing 50 mg/l ampicillin and/or 15 mg/l chloramphenicol. In the β-galactosidase colony color assay, the number of +s represents visual estimation of blue intensity after growing colonies on plates containing 0.08 mg/ml X-gal and 0.024 mg/ml IPTG (to induce the tac promoters) for ~48 hr at 34° C. β-galactosidase activity was also measured in permeabilized cells using an ONPG colorimetric assay (Sambrook et al. Molecular Cloning (Cold Spring Harbor Laboratory Press, Cold Spring Harbor, 1989)). […]

[3] = system: Nut reporter (λ Nut site, Box B); assay: Antitermination assay (β-galactosidase reporter in E. coli), Nut reporter; format: cell-based, phage λ
Description: as §1, §2, §3

HIV RRE = assay: Antitermination assay (β-galactosidase reporter in E. coli), HIV RRE reporter; format: cell-based; design: key to X-gal: +++++, 200 units β-galactosidase/1 OD600 unit cells; ++++, 100-200 units; +++, 10-100 units; ++, 2-10 units; +, 1-10 units; -, background; details: HIV RRE reporter (Table 1)
Description: as §1, §2, §3

BIV TAR = assay: Antitermination assay (β-galactosidase reporter in E. coli), BIV TAR reporter; format: cell-based; design: key to X-gal: +++++, 200 units β-galactosidase/1 OD600 unit cells; ++++, 100-200 units; +++, 10-100 units; ++, 2-10 units; +, 1-10 units; -, background; details: BIV TAR reporter (Table 1)
Description: as §1, §2, §3

HIV TAR = assay: Antitermination assay (β-galactosidase reporter in E. coli), HIV TAR reporter; format: cell-based; design: key to X-gal: +++++, 200 units β-galactosidase/1 OD600 unit cells; ++++, 100-200 units; +++, 10-100 units; ++, 2-10 units; +, 1-10 units; -, background
Description: as §1, §2, §3

[4] = permeabilized cells, 1 hr IPTG induction
[5] = colony colour on X-gal/IPTG plates

14 amino acid wild-type Rev peptide: synthetic 14 amino acid Rev peptide, succinyl capped, four alanines and amide at the C-terminus
helical content [1]: 11%

B1: N: wild-type phage λ N antiterminator protein (protein, UniProt P03045 1-107, looked up)
Antitermination protein N: MDAQTRRRERRAEKQAQWKAANPLLVGVSAKPVNRPILSLNRKPKSRVESALNPIDLTVLAEYHKQIESNLQRIERKNQRTWYSKPGERGITCSGRQKIKGKSIPLI
X-gal ([2]; colony colour on X-gal/IPTG plates ~48 hr at 34° C., E. coli N567): - | ONPG [2, 4]: 1.9 units β-galactosidase/1 OD600 | X-gal ([3]; colony colour on X-gal/IPTG plates ~48 hr at 34° C.): +++++ (+++++, 200 units β-galactosidase/1 OD600 unit cells) | ONPG [3, 4]: 1020 units β-galactosidase/1 OD600 | X-gal (HIV RRE; [5]): - | ONPG (HIV RRE; permeabilized cells): 2.5 units β-galactosidase/1 OD600 | X-gal (BIV TAR; [5]): - | ONPG (BIV TAR; permeabilized cells): 2.9 units β-galactosidase/1 OD600 | X-gal (HIV TAR; [5]): - | ONPG (HIV TAR; permeabilized cells): 2.4 units β-galactosidase/1 OD600
